Results reported in the supplement of paper PMC9732359.
± gives the uncertainty stated by the source.

Assay: protein stability index of a GFP-peptide fusion (yeast GPS) (PSI 1-4); higher = more stable; sorted into four equal gates, so the index is relative within each strain
Summary of the method: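 Tiled 17-residue yeast protein peptides were fused downstream of GFP in a plasmid that also expresses Cherry, and the pooled library was carried in yeast. Mid-log cultures in leucine-free medium were sorted into four equal gates by GFP/Cherry fluorescence ratio, and plasmids from each gate were PCR-amplified and Illumina-sequenced, with reads assigned to strains by barcodes. The protein stability index for each peptide was each gate's read frequency times its gate number, summed.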

## RSLRATAEERVGRRAAN [RPL15A]
doa10∆
  protein stability index: 3.56 ± 0.24
pdr5∆
  protein stability index: 3.52 ± 0.19
san1∆
  protein stability index: 3.03 ± 0.2
ubr1∆
  protein stability index: 2.95 ± 0.1

## QLSLDASKTNLRLTDVT [GAL11]
doa10∆
  protein stability index: 2.85 ± 0.058
pdr5∆
  protein stability index: 3.23 ± 0.066
san1∆
  protein stability index: 3.06 ± 0.047
ubr1∆
  protein stability index: 3.16 ± 0.047

## DYLNAELGEFFVNGVAT [FAS2]
doa10∆
  protein stability index: 3.09 ± 0.093
pdr5∆
  protein stability index: 2.79 ± 0.24
san1∆
  protein stability index: 3.06 ± 0.12
ubr1∆
  protein stability index: 3.35 ± 0.08

## PSINLDPDNTSFSDENS [ESC2]
doa10∆
  protein stability index: 2.83 ± 0.072
pdr5∆
  protein stability index: 2.93 ± 0.054
san1∆
  protein stability index: 2.58 ± 0.064
ubr1∆
  protein stability index: 3.07 ± 0.029

## ELALLNHWRQNKGRAVY [BRR2]
doa10∆
  protein stability index: 1.21 ± 0.21
pdr5∆
  protein stability index: 1.21 ± 0.13
san1∆
  protein stability index: 1.21 ± 0.29
ubr1∆
  protein stability index: 1.1 ± 0.083

## LKNEGIDLDHKRFLILQ [SMC4]
doa10∆
  protein stability index: 2.21 ± 0.22
pdr5∆
  protein stability index: 2.35 ± 0.13
san1∆
  protein stability index: 2.15 ± 0.12
ubr1∆
  protein stability index: 2.84 ± 0.068

## YRTPGSSGVLSSNIAGT [SSN2]
doa10∆
  protein stability index: 3.35 ± 0.12
pdr5∆
  protein stability index: 3.29 ± 0.1
san1∆
  protein stability index: 3.03 ± 0.14
ubr1∆
  protein stability index: 3.38 ± 0.088

## NKEYTLVHGIFGAKMSR [SIN4]
doa10∆
  protein stability index: 2.75 ± 0.12
pdr5∆
  protein stability index: 2.98 ± 0.13
san1∆
  protein stability index: 3.15 ± 0.19
ubr1∆
  protein stability index: 3.09 ± 0.11

## GDLLNAEVQSLFQDGSA [RRP4]
doa10∆
  protein stability index: 2.18 ± 0.096
pdr5∆
  protein stability index: 2.74 ± 0.13
san1∆
  protein stability index: 2.94 ± 0.068
ubr1∆
  protein stability index: 2.37 ± 0.096

## SDESIERLMTWKFKSLI [RRI2]
doa10∆
  protein stability index: 2.26 ± 0.048
pdr5∆
  protein stability index: 2.36 ± 0.042
san1∆
  protein stability index: 2.11 ± 0.066
ubr1∆
  protein stability index: 2.31 ± 0.031

## VGIDTHTATDIYQTLIA [SNF2]
doa10∆
  protein stability index: 2.12 ± 0.05
pdr5∆
  protein stability index: 2.03 ± 0.048
san1∆
  protein stability index: 1.85 ± 0.05
ubr1∆
  protein stability index: 1.72 ± 0.028

## KPNDLVGVNKDSYLILD [RPT5]
doa10∆
  protein stability index: 3.05 ± 0.17
pdr5∆
  protein stability index: 3.4 ± 0.19
san1∆
  protein stability index: 3.35 ± 0.082
ubr1∆
  protein stability index: 3.49 ± 0.14

## SVQDLGGSATARHKKKV [YML031W/NDC1]
doa10∆
  protein stability index: 2.7 ± 0.12
pdr5∆
  protein stability index: 1.75 ± 0.069
san1∆
  protein stability index: 1.57 ± 0.21
ubr1∆
  protein stability index: 2.05 ± 0.057

## KDLQWLEFARITPMNDD [SIN4]
doa10∆
  protein stability index: 2.94 ± 0.1
pdr5∆
  protein stability index: 3.19 ± 0.088
san1∆
  protein stability index: 3.14 ± 0.055
ubr1∆
  protein stability index: 3.33 ± 0.097

## FLHESSFDSIDHSWFLL [CSI1]
doa10∆
  protein stability index: 2.67 ± 0.075
pdr5∆
  protein stability index: 2.93 ± 0.061
san1∆
  protein stability index: 2.48 ± 0.072
ubr1∆
  protein stability index: 2.87 ± 0.044

## YINVNPQEETITFLIEK [ECM29]
doa10∆
  protein stability index: 3.23 ± 0.095
pdr5∆
  protein stability index: 2.96 ± 0.089
san1∆
  protein stability index: 2.91 ± 0.064
ubr1∆
  protein stability index: 3.17 ± 0.06

## LEQFMERNNIGEICKNY [YDL116W/NUP84]
doa10∆
  protein stability index: 2.69 ± 0.11
pdr5∆
  protein stability index: 2.6 ± 0.076
san1∆
  protein stability index: 2.72 ± 0.14
ubr1∆
  protein stability index: 2.44 ± 0.069

## NCKKKKKRKKKNKSAID [RMP1]
doa10∆
  protein stability index: 2.57 ± 0.1
pdr5∆
  protein stability index: 2.67 ± 0.13
san1∆
  protein stability index: 2.79 ± 0.089
ubr1∆
  protein stability index: 3.37 ± 0.16

## RLILLLNHRNKNQHRAA [RMP1]
doa10∆
  protein stability index: 1.44 ± 0.09
pdr5∆
  protein stability index: 1.51 ± 0.079
san1∆
  protein stability index: 1.34 ± 0.12
ubr1∆
  protein stability index: 2.13 ± 0.089

## GLTSRLQRQQRKSKLNL [POP4]
doa10∆
  protein stability index: 2.65 ± 0.12
pdr5∆
  protein stability index: 3.34 ± 0.18
san1∆
  protein stability index: 3.09 ± 0.063
ubr1∆
  protein stability index: 3.67 ± 0.27

## DESYARAYRIIRAHQTE [QCR7]
doa10∆
  protein stability index: 3.17 ± 0.17
pdr5∆
  protein stability index: 3.43 ± 0.17
san1∆
  protein stability index: 3.14 ± 0.22
ubr1∆
  protein stability index: 3.41 ± 0.091

## QGKSKLIIIAANTPVLR [RPL30]
doa10∆
  protein stability index: 2.91 ± 0.093
pdr5∆
  protein stability index: 3.08 ± 0.12
san1∆
  protein stability index: 2.96 ± 0.065
ubr1∆
  protein stability index: 2.99 ± 0.078

## MESIGSDILTAEKMRGN [RRP4]
doa10∆
  protein stability index: 3.1 ± 0.13
pdr5∆
  protein stability index: 3.43 ± 0.12
san1∆
  protein stability index: 3.14 ± 0.093
ubr1∆
  protein stability index: 3.34 ± 0.092

## FEFNIRHSGKVYPITLS [UBP6]
doa10∆
  protein stability index: 1.74 ± 0.11
pdr5∆
  protein stability index: 2.51 ± 0.12
san1∆
  protein stability index: 2.89 ± 0.089
ubr1∆
  protein stability index: 1.22 ± 0.056

## KNFENGPKKNVFYAPNV [RPC34]
doa10∆
  protein stability index: 2.99 ± 0.068
pdr5∆
  protein stability index: 2.94 ± 0.071
san1∆
  protein stability index: 2.66 ± 0.084
ubr1∆
  protein stability index: 3.14 ± 0.063

## SFDSIDHSWFLLIGCKL [CSI1]
doa10∆
  protein stability index: 1.71 ± 0.1
pdr5∆
  protein stability index: 1.77 ± 0.058
san1∆
  protein stability index: 1.72 ± 0.2
ubr1∆
  protein stability index: 2.58 ± 0.05

## INKEIFHHWLVEFINKM [SRB8]
doa10∆
  protein stability index: 1.49 ± 0.17
pdr5∆
  protein stability index: 1.76 ± 0.12
san1∆
  protein stability index: 3.03 ± 0.053
ubr1∆
  protein stability index: 1.6 ± 0.088

## SRPASYGYFSVGKRVPI [SIR4]
doa10∆
  protein stability index: 2.31 ± 0.19
pdr5∆
  protein stability index: 2.14 ± 0.11
san1∆
  protein stability index: 2.15 ± 0.13

## SEPLTLKVLSEHLDCMN [PCI8]
doa10∆
  protein stability index: 1.91 ± 0.064
pdr5∆
  protein stability index: 2.29 ± 0.065
san1∆
  protein stability index: 2.73 ± 0.055
ubr1∆
  protein stability index: 1.93 ± 0.058

## KLNKVDKNELQQMIITR [SIR3]
doa10∆
  protein stability index: 3.12 ± 0.074
pdr5∆
  protein stability index: 3.22 ± 0.07
san1∆
  protein stability index: 3.28 ± 0.039
ubr1∆
  protein stability index: 3.23 ± 0.043

## ITMPATNGKPDMAILER [ARP7]
doa10∆
  protein stability index: 3.17 ± 0.059
pdr5∆
  protein stability index: 3.08 ± 0.059
san1∆
  protein stability index: 3.06 ± 0.041
ubr1∆
  protein stability index: 3.18 ± 0.042

## LHDTQIEGKLHMATALQ [RPN10]
doa10∆
  protein stability index: 2.48 ± 0.22
pdr5∆
  protein stability index: 2.37 ± 0.2
ubr1∆
  protein stability index: 2.38 ± 0.23

## PEGLLKSLWDYVKKNTE [TAF14]
doa10∆
  protein stability index: 3.01 ± 0.17
pdr5∆
  protein stability index: 2.12 ± 0.076
ubr1∆
  protein stability index: 3.13 ± 0.094

## TLLPGLQDEVMNIKPVQ [RPS2]
doa10∆
  protein stability index: 1.21 ± 0.14
pdr5∆
  protein stability index: 1.35 ± 0.13
san1∆
  protein stability index: 1.18 ± 0.26
ubr1∆
  protein stability index: 1.09 ± 0.14

## SHERFFLSQGLHVVITL [CSN12]
doa10∆
  protein stability index: 2.89 ± 0.099
pdr5∆
  protein stability index: 2.94 ± 0.094
san1∆
  protein stability index: 2.74 ± 0.18
ubr1∆
  protein stability index: 2.87 ± 0.12

## VKMLRDNPGYKASKEIK [SIR3]
doa10∆
  protein stability index: 3.08 ± 0.17
pdr5∆
  protein stability index: 3.38 ± 0.19
ubr1∆
  protein stability index: 3.15 ± 0.11

## NSIRAREVENSVSLLNS [SMC1]
doa10∆
  protein stability index: 2.55 ± 0.064
pdr5∆
  protein stability index: 2.78 ± 0.06
san1∆
  protein stability index: 3.09 ± 0.071
ubr1∆
  protein stability index: 3.08 ± 0.069

## ETESSVSNNEANTPSIP [SWI3]
doa10∆
  protein stability index: 3.09 ± 0.053
pdr5∆
  protein stability index: 3.12 ± 0.069
san1∆
  protein stability index: 3.11 ± 0.054
ubr1∆
  protein stability index: 3.15 ± 0.054

## DFVRNELNDIDTKIDQV [SMC3]
doa10∆
  protein stability index: 3.19 ± 0.15
pdr5∆
  protein stability index: 3.31 ± 0.11
san1∆
  protein stability index: 3.12 ± 0.14
ubr1∆
  protein stability index: 3.29 ± 0.13

## GLIYSFNEENGEDSTKP [POP1]
doa10∆
  protein stability index: 3.25 ± 0.098
pdr5∆
  protein stability index: 3.21 ± 0.18
san1∆
  protein stability index: 2.86 ± 0.26
ubr1∆
  protein stability index: 3.1 ± 0.17

## ALAEGHGDAAVLLVEKY [NAS6]
pdr5∆
  protein stability index: 3.12 ± 0.1
san1∆
  protein stability index: 3.04 ± 0.09
ubr1∆
  protein stability index: 2.6 ± 0.11

## NHNGSALLIEVFTALLR [ITC1]
doa10∆
  protein stability index: 1.68 ± 0.074
pdr5∆
  protein stability index: 1.38 ± 0.055
san1∆
  protein stability index: 1.47 ± 0.094
ubr1∆
  protein stability index: 1.35 ± 0.053

## ENALIELKNELAKTKEN [YIL149C/MLP2]
doa10∆
  protein stability index: 2.82 ± 0.087
pdr5∆
  protein stability index: 2.97 ± 0.07
san1∆
  protein stability index: 2.98 ± 0.068
ubr1∆
  protein stability index: 2.93 ± 0.08

## PKNQQYRAFGSIWQVKD [MED7]
doa10∆
  protein stability index: 2.45 ± 0.084
pdr5∆
  protein stability index: 2.7 ± 0.082
san1∆
  protein stability index: 2.54 ± 0.08
ubr1∆
  protein stability index: 2.64 ± 0.063

## RWDKEEYQSLMSLKDKL [SMC1]
doa10∆
  protein stability index: 3.29 ± 0.076
pdr5∆
  protein stability index: 3.31 ± 0.08
san1∆
  protein stability index: 3.2 ± 0.11
ubr1∆
  protein stability index: 3.09 ± 0.053

## IPDLSIQNDIYLNDLMI [RPN12]
doa10∆
  protein stability index: 2.99 ± 0.046
pdr5∆
  protein stability index: 3.06 ± 0.042
san1∆
  protein stability index: 2.99 ± 0.044
ubr1∆
  protein stability index: 3.02 ± 0.046

## DVSQLIAGINKKKGLDE [PRP28]
doa10∆
  protein stability index: 3.43 ± 0.095
pdr5∆
  protein stability index: 3.64 ± 0.11
san1∆
  protein stability index: 3.29 ± 0.086
ubr1∆
  protein stability index: 3.76 ± 0.11

## KAFKICEAAVEISKKDF [SIR3]
doa10∆
  protein stability index: 3.19 ± 0.13
pdr5∆
  protein stability index: 2.88 ± 0.082
san1∆
  protein stability index: 2.79 ± 0.14
ubr1∆
  protein stability index: 2.85 ± 0.12

## TREKVLEDKLRAVLTPL [RRP46]
doa10∆
  protein stability index: 2.89 ± 0.17
pdr5∆
  protein stability index: 3.05 ± 0.11
san1∆
  protein stability index: 2.91 ± 0.19
ubr1∆
  protein stability index: 2.82 ± 0.11

## LFHFEEDEGEELTDEYL [PRP8]
doa10∆
  protein stability index: 3.52 ± 0.14
pdr5∆
  protein stability index: 3.01 ± 0.09
san1∆
  protein stability index: 3.44 ± 0.06
ubr1∆
  protein stability index: 3 ± 0.12

## NRLEKEQSVKTQNSRHY [LIN1]
doa10∆
  protein stability index: 2.44 ± 0.13
pdr5∆
  protein stability index: 2.85 ± 0.12
san1∆
  protein stability index: 2.52 ± 0.13
ubr1∆
  protein stability index: 2.49 ± 0.096

## GGFTNLTSQAPQTTQMF [YDL088C/ASM4]
doa10∆
  protein stability index: 3.35 ± 0.12
pdr5∆
  protein stability index: 3.09 ± 0.091
san1∆
  protein stability index: 3.38 ± 0.077
ubr1∆
  protein stability index: 3.08 ± 0.068
